Reference: US20050124794A1 (published 2005)
Ends that are not written are not given here. * marks the point of attachment. Fmoc = O=C(OCC1c2ccccc2-c2ccccc21)*

B1: ATN-278.000.01 (Fmoc N-capped HHPHG) (peptide)
peptide: Fmoc-HHPHG
notes: The text says the N-terminus of the pentapeptide HHPHG was capped
B2: ATN230 (peptide)
peptide: HHPHG
notes: Synthetic pentapeptide; also called HHPHG
B3: Antiangiogenic Ligand-Binding Polypeptide (AALBP), chymotryptic fragment of chicken gizzard Tpm cTPM1 (other)
chain: not shown
B4: Histidine-Proline rich (H/P) domain of HPRG (ligand)
chain: SVNIIHRPPPHGHHPHGPPPHGHHPHGPPPHGHPPHGPPPRHPPHGPPPHGHPPHGPPPHGHPPHGPPPHGHPPHGPPPHGHPPHGHGFHDHGPCDPPSHK
notes: also called HPRG-H/P; HPRG-H/P domain
B5: Recombinant HKa domain 5 (HKa D5) (ligand)
chain: VSPPHTSMAPAQDEERDSGKEQGHTRRHDWGHEKQRKHNLGHGHKHERDQGHGHQRGHGLGHGHEQQHGLGHGHKFKLDDDLEHQGGHVLDHGHKHKHGHGHGKHKNKGKKNGKHNGWKTEHLAS
notes: also called HK-D5; D5 domain of HKa

Experiments:
[1] = molecular target: T1, Chicken gizzard tropomyosin (Tpm), purified (chicken); test: displacement of 10 nM biotin-HKa from immobilized chicken gizzard Tpm, 10 µM ZnCl2
T1 construct: Bought from Sigma and coated on 96-well plates; also called purified Tpm; immobilized Tpm
Protocol: The N-terminus of the pentapeptide HHPHG has been derivatized (capped) in an attempt to increase the pentapeptides' affinity to Tpm by increasing productive molecular contacts (or interactions). […] The IC₅₀ for the displacement of biotinylated-HKa for the capped peptides shown in the table was determined as follows: 10 nM biotin-HKa was added to a 96 well plate previously coated with 200 ng of chicken gizzard Tpm in the presence of 10 μM ZnCl₂. Increasing amounts of the peptides were added to the wells. The remaining biotin-HKa bound to Tpm was detected using avidin-HRP and a chromogenic substrate. A Kd was determined by non-linear regression analysis of the empirical data

[2] = molecular target: T1, Chicken gizzard tropomyosin (Tpm), …; test: as above; remark: listed apart in the source
Protocol: The IC₅₀ for the displacement of biotinylated-HKa for the peptides shown in Table 5 was determined as follows: 10 nM biotin-HKa is added to a 96 well plate previously coated with 200 ng of chicken gizzard Tpm in the presence of 10 μM ZnCl₂. Increasing amounts of the peptides are added to the wells. The remaining biotin-HKa bound to Tpm was detected using avidin-HRP and a chromogenic substrate. A Kd was determined by non-linear regression analysis of the empirical data. The effect on the Matrigel Plug assay was determined as follows: Matrigel (0.5 mL) containing 400 ng/ml of bFGF, 50 μg/ml heparin with or without the peptide (300 μM) or saline buffer are injected in the flanks of a mouse. After five days, the plugs are removed and the plugs scanned.

[3] = molecular target: T1, Chicken gizzard tropomyosin (Tpm), …; test: binding to Tpm in vitro; assay not detailed
[4] = molecular target: B5; test: chymotryptic digest of chicken gizzard Tpm on HK-D5-Sepharose in TBS with 10 uM ZnCl2, elution with 2 M NaCl, SDS-PAGE
Protocol: Chicken gizzard Tpm (0.4 mg/ml) was incubated with 5 μg/ml chymotrypsin in TBS pH 7.5 at 37° C. and aliquots were taken at the indicated times. SDS-PAGE sample buffer was added and the sample heated at 80° C. for 4 minutes and then loaded onto and run on a 10% NuPage gel (Invitrogen).
Chicken gizzard Tpm was partially digested with Chymotrypsin as described for FIG. 19 for 100 minutes so that a 20 kDa fragment was enriched. HK-D5 had previously immobilized in an activated Sepharose (CNBr-activated Sepharose 4 B, Amersham Biosciences). The chymotryptic fragments were incubated with the HK-D5-Sepharose resin in TBS containing 10 μM ZnCl₂, washed extensively in the same buffer and eluted in 2 M NaCl. The samples were run in a 10% NuPage gel (Invitrogen).

[5] = molecular target: T1, Chicken gizzard tropomyosin (Tpm), …; test: competition with 10 nM biotin-HKa on plate coated with 200 ng chicken gizzard Tpm, 10 µM ZnCl2
Protocol: 10 nM biotin-HKa was added to a 96 well plate previously coated with 200 ng of chicken gizzard Tpm in the presence of 10 μM ZnCl₂. Increasing amounts of HK-D5, HPRG-H/P domain or endostatin were added to the wells. Bound biotin-HKa was detected and Kd was calculated as for FIG. 10.
Binding to immobilized Tpm is carried out either by a competition assay with a known ligand, biotin-HKa, or by direct binding of the corresponding biotinylated protein. Plates are coated at room temperature with chicken gizzard Tpm (Sigma) in Tris buffer-saline (TBS) (200 ng/well). After incubation for 2 hours, wells are washed with TBS, then 1% BSA/TBS/Tween-20 is added to each well and incubate at 37° C. for two hours. HKa (Enzyme Laboratories) that had been previously biotinylated with EZ-Link (Pierce) according to the manufacturers instructions, is added to the plate at a concentration of 10 nM together with ZnCl₂ (10 μM) and the appropriate concentration of the protein, domain or peptide competitor. The plates are incubated at room temperature and then washed with TBS/Tween-20. Avidin-HRP is added, incubated for 20 minutes at room temperature, washed with TBS/Tween-20 and the chromogenic substrate is added. The reaction is stopped with sulfuric acid and the plate read at 490 nm.

[6] = molecular target: T1, Chicken gizzard tropomyosin (Tpm), …; test: competition ELISA against 10 nM biotin-HKa on immobilized chicken gizzard Tpm, 10 uM ZnCl2
[7] = molecular target: T1, Chicken gizzard tropomyosin (Tpm), …; test: inhibition of binding of 20 nM biotin-HKa to purified immobilized chicken gizzard Tpm; competition against 20 nM biotin-HKa
Protocol: FIGS. 7A-7C show specific binding of HKa to purified immobilized Tpm and its inhibition. […] Plates were incubated with increasing concentrations of biotin-HKa in the absence or presence of 10 μM Zn²⁺. […] The IC₅₀ for this inhibition was about 8.1 nM.

T1 sequence (chain, as listed by the source limits assumed): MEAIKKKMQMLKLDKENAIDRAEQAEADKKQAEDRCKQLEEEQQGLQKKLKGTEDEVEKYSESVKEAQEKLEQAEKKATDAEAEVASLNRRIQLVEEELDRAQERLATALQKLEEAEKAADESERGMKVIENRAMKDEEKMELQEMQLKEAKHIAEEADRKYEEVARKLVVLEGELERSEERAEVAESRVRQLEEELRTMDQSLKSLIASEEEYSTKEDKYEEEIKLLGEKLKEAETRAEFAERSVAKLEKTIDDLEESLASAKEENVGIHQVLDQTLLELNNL

Row | Binder | IC50 [1] [µM] | IC50 [2] [µM] | other results
1 | HHPHG (not fully specified (N-terminus)) [ATN-275.000.01 ((1S)-(+)-camphorsulphonyl N-capped HHPHG)] | 30 |  | 
2 | B1 | 55 |  | 
3 | B2 |  | 121 | 
4 | HPPHG (also called HPPHG) [ATN228] |  | 150 | 
5 | AHPHG [AHPHG (Ala substituted mutant of HHPHG)] |  |  | binding result [3]: no binding
6 | {4‑Chlorobenzyl}-HHPHG [ATN-276.000.01 (4-Chlorobenzyl N-capped HHPHG)] | 23 |  | 
7 | HKNKGKKN [ATN16] |  | 99.5 | 
8 | B3 |  |  | binding result [4]: binds
9 | B4 |  |  | fold higher affinity than endostatin [5]: ~1000 fold
10 | {3‑(1-adamantyl)propanoyl}-HHPHG [ATN-281.000.01 (3-(1-adamantyl)propanoyl N-capped HHPHG)] | 59 |  | 
11 | B5 |  |  | fold higher affinity than endostatin [5]: ~1000 fold; IC50 (read off the curve) [6]: ~0.002 µM; IC50 [7]: ~0.0081 µM
12 | TRRHDWGH [ATN232] |  | 140 | 
